Experiment [1] deals with T1, GAL4 activation domain fusion (ACT) to HAB1 (UniProt Q9CAJ0 23-511, limits assumed).
T1 construct: pACT-HAB1 fusion in yeast reporter strains; also called pACT-HAB1
T1 sequence (looked up): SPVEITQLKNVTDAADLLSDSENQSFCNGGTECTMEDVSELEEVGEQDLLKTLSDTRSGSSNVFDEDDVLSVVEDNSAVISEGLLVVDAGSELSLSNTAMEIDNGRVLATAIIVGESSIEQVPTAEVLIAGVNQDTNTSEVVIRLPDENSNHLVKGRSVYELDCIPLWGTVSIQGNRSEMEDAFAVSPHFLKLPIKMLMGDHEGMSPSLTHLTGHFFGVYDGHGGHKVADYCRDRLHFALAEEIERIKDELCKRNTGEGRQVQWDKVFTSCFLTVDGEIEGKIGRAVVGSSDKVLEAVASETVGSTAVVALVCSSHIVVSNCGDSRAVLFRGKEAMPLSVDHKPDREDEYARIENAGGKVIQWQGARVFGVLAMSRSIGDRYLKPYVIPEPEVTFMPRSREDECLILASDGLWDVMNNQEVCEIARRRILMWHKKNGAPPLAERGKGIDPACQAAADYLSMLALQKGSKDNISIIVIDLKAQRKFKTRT
The experiment in a line: yeast two-hybrid, X-gal; lowest benzothiadiazole concentration giving signal.

Experiment [2] addresses T1, GAL4 activation domain fusion (ACT) to …. The experiment in a line: yeast two-hybrid, X-gal; lowest dichlobenil concentration giving signal.
Experiment [3] shares this target. The experiment can be described thus: yeast two-hybrid, X-gal; lowest fludioxonil concentration giving signal.
For experiment [4] the target is unchanged. The experiment can be described thus: yeast two-hybrid, X-gal; lowest mandipropamid concentration giving signal.

B1: PYR1^K59R,A89C (receptor, not shown: small tags and cut ends)
chain: MPSELTPEERSELKNSIAEFHTYQLDPGSCSSLHAQRIHAPPELVWSIVRRFDKPQTYRHFIKSCSVEQNFEMRVGCTRDVIVISGLPCNTSTERLDILDDERRVTGFSIIGGEHRLTNYKSVTTVHRFEKENRIWTVVLESYVVDMPEGNSEDDTRMFADTVVKLNLQKLATVAEAMARNSGDGSGSQVT
notes: pBD-PYR1 fusion in yeast
On to B1, for which, in experiment [1], the Threshold was 100 µM.

B2: PYR1^K59R,A160C (receptor, not shown: small tags and cut ends)
chain: MPSELTPEERSELKNSIAEFHTYQLDPGSCSSLHAQRIHAPPELVWSIVRRFDKPQTYRHFIKSCSVEQNFEMRVGCTRDVIVISGLPANTSTERLDILDDERRVTGFSIIGGEHRLTNYKSVTTVHRFEKENRIWTVVLESYVVDMPEGNSEDDTRMFCDTVVKLNLQKLATVAEAMARNSGDGSGSQVT
notes: pBD-PYR1 fusion in yeast
With B2, the Threshold in experiment [2] and in experiment [3] was 100 µM in each case.

B3: PYR1^K59R,Y120A,E141Y (receptor, not shown: small tags and cut ends)
chain: MPSELTPEERSELKNSIAEFHTYQLDPGSCSSLHAQRIHAPPELVWSIVRRFDKPQTYRHFIKSCSVEQNFEMRVGCTRDVIVISGLPANTSTERLDILDDERRVTGFSIIGGEHRLTNAKSVTTVHRFEKENRIWTVVLYSYVVDMPEGNSEDDTRMFADTVVKLNLQKLATVAEAMARNSGDGSGSQVT
notes: pBD-PYR1 fusion in yeast
In turn, B3 came in with a Threshold in experiment [3] of 10 µM.

B4: PYR1^K59R,Y120F (receptor, not shown: small tags and cut ends)
chain: MPSELTPEERSELKNSIAEFHTYQLDPGSCSSLHAQRIHAPPELVWSIVRRFDKPQTYRHFIKSCSVEQNFEMRVGCTRDVIVISGLPANTSTERLDILDDERRVTGFSIIGGEHRLTNFKSVTTVHRFEKENRIWTVVLESYVVDMPEGNSEDDTRMFADTVVKLNLQKLATVAEAMARNSGDGSGSQVT
notes: pBD-PYR1 fusion in yeast
B4 returned a Threshold in experiment [3] of 100 µM.

B5: PYR1^K59R,N167H (receptor, not shown: small tags and cut ends)
chain: MPSELTPEERSELKNSIAEFHTYQLDPGSCSSLHAQRIHAPPELVWSIVRRFDKPQTYRHFIKSCSVEQNFEMRVGCTRDVIVISGLPANTSTERLDILDDERRVTGFSIIGGEHRLTNYKSVTTVHRFEKENRIWTVVLESYVVDMPEGNSEDDTRMFADTVVKLHLQKLATVAEAMARNSGDGSGSQVT
notes: pBD-PYR1 fusion in yeast
For the molecule B5, the Threshold in experiment [3] is 100 µM.

B6: PYR1^K59R,E94A,Y120A (receptor, not shown: small tags and cut ends)
chain: MPSELTPEERSELKNSIAEFHTYQLDPGSCSSLHAQRIHAPPELVWSIVRRFDKPQTYRHFIKSCSVEQNFEMRVGCTRDVIVISGLPANTSTARLDILDDERRVTGFSIIGGEHRLTNAKSVTTVHRFEKENRIWTVVLESYVVDMPEGNSEDDTRMFADTVVKLNLQKLATVAEAMARNSGDGSGSQVT
notes: pBD-PYR1 fusion in yeast
Consider B6, for which, in experiment [3], the Threshold amounted to 10 µM.

B7: PYR1^K59R,E94A (receptor, not shown: small tags and cut ends)
chain: MPSELTPEERSELKNSIAEFHTYQLDPGSCSSLHAQRIHAPPELVWSIVRRFDKPQTYRHFIKSCSVEQNFEMRVGCTRDVIVISGLPANTSTARLDILDDERRVTGFSIIGGEHRLTNYKSVTTVHRFEKENRIWTVVLESYVVDMPEGNSEDDTRMFADTVVKLNLQKLATVAEAMARNSGDGSGSQVT
notes: pBD-PYR1 fusion in yeast
Consider B7, for which, in experiment [3], the Threshold worked out at 1 µM.

B8: PYR1^K59R,S92F (receptor, not shown: small tags and cut ends)
chain: MPSELTPEERSELKNSIAEFHTYQLDPGSCSSLHAQRIHAPPELVWSIVRRFDKPQTYRHFIKSCSVEQNFEMRVGCTRDVIVISGLPANTFTERLDILDDERRVTGFSIIGGEHRLTNYKSVTTVHRFEKENRIWTVVLESYVVDMPEGNSEDDTRMFADTVVKLNLQKLATVAEAMARNSGDGSGSQVT
notes: pBD-PYR1 fusion in yeast
B8: the Threshold in experiment [3] was determined as 100 µM.

B9: PYR1^K59R,Y120A (receptor, not shown: small tags and cut ends)
chain: MPSELTPEERSELKNSIAEFHTYQLDPGSCSSLHAQRIHAPPELVWSIVRRFDKPQTYRHFIKSCSVEQNFEMRVGCTRDVIVISGLPANTSTERLDILDDERRVTGFSIIGGEHRLTNAKSVTTVHRFEKENRIWTVVLESYVVDMPEGNSEDDTRMFADTVVKLNLQKLATVAEAMARNSGDGSGSQVT
notes: pBD-PYR1 fusion in yeast
B9: in experiment [3], the Threshold amounted to 100 µM.

B10: PYR1^K59R,L87P (receptor, not shown: small tags and cut ends)
chain: MPSELTPEERSELKNSIAEFHTYQLDPGSCSSLHAQRIHAPPELVWSIVRRFDKPQTYRHFIKSCSVEQNFEMRVGCTRDVIVISGPPANTSTERLDILDDERRVTGFSIIGGEHRLTNYKSVTTVHRFEKENRIWTVVLESYVVDMPEGNSEDDTRMFADTVVKLNLQKLATVAEAMARNSGDGSGSQVT
notes: pBD-PYR1 fusion in yeast
As to B10, the Threshold in experiment [2] and in experiment [3] was 100 µM each time.

B11: PYR1^K59R,V81Y (receptor, not shown: small tags and cut ends)
chain: MPSELTPEERSELKNSIAEFHTYQLDPGSCSSLHAQRIHAPPELVWSIVRRFDKPQTYRHFIKSCSVEQNFEMRVGCTRDYIVISGLPANTSTERLDILDDERRVTGFSIIGGEHRLTNYKSVTTVHRFEKENRIWTVVLESYVVDMPEGNSEDDTRMFADTVVKLNLQKLATVAEAMARNSGDGSGSQVT
notes: pBD-PYR1 fusion in yeast
In the case of B11, in experiment [3], the Threshold is 100 µM.

B12: PYR1^K59R,E94D (receptor, not shown: small tags and cut ends)
chain: MPSELTPEERSELKNSIAEFHTYQLDPGSCSSLHAQRIHAPPELVWSIVRRFDKPQTYRHFIKSCSVEQNFEMRVGCTRDVIVISGLPANTSTDRLDILDDERRVTGFSIIGGEHRLTNYKSVTTVHRFEKENRIWTVVLESYVVDMPEGNSEDDTRMFADTVVKLNLQKLATVAEAMARNSGDGSGSQVT
notes: pBD-PYR1 fusion in yeast
Take B12: the Threshold in experiment [2] and in experiment [3] was 100 µM in each case.

B13: PYR1^K59R,A89C,A160G (receptor, not shown: small tags and cut ends)
chain: MPSELTPEERSELKNSIAEFHTYQLDPGSCSSLHAQRIHAPPELVWSIVRRFDKPQTYRHFIKSCSVEQNFEMRVGCTRDVIVISGLPCNTSTERLDILDDERRVTGFSIIGGEHRLTNYKSVTTVHRFEKENRIWTVVLESYVVDMPEGNSEDDTRMFGDTVVKLNLQKLATVAEAMARNSGDGSGSQVT
notes: pBD-PYR1 fusion in yeast
The molecule B13 yielded a Threshold in experiment [1] of 5 µM.

B14: PYR1^K59R,Y120M (receptor, not shown: small tags and cut ends)
chain: MPSELTPEERSELKNSIAEFHTYQLDPGSCSSLHAQRIHAPPELVWSIVRRFDKPQTYRHFIKSCSVEQNFEMRVGCTRDVIVISGLPANTSTERLDILDDERRVTGFSIIGGEHRLTNMKSVTTVHRFEKENRIWTVVLESYVVDMPEGNSEDDTRMFADTVVKLNLQKLATVAEAMARNSGDGSGSQVT
notes: pBD-PYR1 fusion in yeast
In experiment [3], B14 showed a Threshold of 100 µM.

B15: PYR1^K59R,N167C (receptor, not shown: small tags and cut ends)
chain: MPSELTPEERSELKNSIAEFHTYQLDPGSCSSLHAQRIHAPPELVWSIVRRFDKPQTYRHFIKSCSVEQNFEMRVGCTRDVIVISGLPANTSTERLDILDDERRVTGFSIIGGEHRLTNYKSVTTVHRFEKENRIWTVVLESYVVDMPEGNSEDDTRMFADTVVKLCLQKLATVAEAMARNSGDGSGSQVT
notes: pBD-PYR1 fusion in yeast
Turning to B15, the Threshold in experiment [2] and in experiment [3] was 100 µM in each case.

B16: PYR1^K59R,N167V (receptor, not shown: small tags and cut ends)
chain: MPSELTPEERSELKNSIAEFHTYQLDPGSCSSLHAQRIHAPPELVWSIVRRFDKPQTYRHFIKSCSVEQNFEMRVGCTRDVIVISGLPANTSTERLDILDDERRVTGFSIIGGEHRLTNYKSVTTVHRFEKENRIWTVVLESYVVDMPEGNSEDDTRMFADTVVKLVLQKLATVAEAMARNSGDGSGSQVT
notes: pBD-PYR1 fusion in yeast
Consider B16, for which, in experiment [3], the Threshold was 100 µM.

B17: PYR1^K59R,E94A,N167C (receptor, not shown: small tags and cut ends)
chain: MPSELTPEERSELKNSIAEFHTYQLDPGSCSSLHAQRIHAPPELVWSIVRRFDKPQTYRHFIKSCSVEQNFEMRVGCTRDVIVISGLPANTSTARLDILDDERRVTGFSIIGGEHRLTNYKSVTTVHRFEKENRIWTVVLESYVVDMPEGNSEDDTRMFADTVVKLCLQKLATVAEAMARNSGDGSGSQVT
notes: pBD-PYR1 fusion in yeast
B17 yielded a Threshold in experiment [3] of 10 µM.

B18: PYR1^K59R,E94S (receptor, not shown: small tags and cut ends)
chain: MPSELTPEERSELKNSIAEFHTYQLDPGSCSSLHAQRIHAPPELVWSIVRRFDKPQTYRHFIKSCSVEQNFEMRVGCTRDVIVISGLPANTSTSRLDILDDERRVTGFSIIGGEHRLTNYKSVTTVHRFEKENRIWTVVLESYVVDMPEGNSEDDTRMFADTVVKLNLQKLATVAEAMARNSGDGSGSQVT
notes: pBD-PYR1 fusion in yeast
Turning to B18, the Threshold in experiment [3] was 100 µM.

B19: PYR1^K59R,F108L (receptor)
chain: MPSELTPEERSELKNSIAEFHTYQLDPGSCSSLHAQRIHAPPELVWSIVRRFDKPQTYRHFIKSCSVEQNFEMRVGCTRDVIVISGLPANTSTERLDILDDERRVTGLSIIGGEHRLTNYKSVTTVHRFEKENRIWTVVLESYVVDMPEGNSEDDTRMFADTVVKLNLQKLATVAEAMARNSGDGSGSQVT
notes: pBD-PYR1 fusion in yeast
In the case of B19, the Threshold in experiment [3] and in experiment [4] was 100 µM in each case.

B20: PYR1^K59R,Y120G (receptor, not shown: small tags and cut ends)
chain: MPSELTPEERSELKNSIAEFHTYQLDPGSCSSLHAQRIHAPPELVWSIVRRFDKPQTYRHFIKSCSVEQNFEMRVGCTRDVIVISGLPANTSTERLDILDDERRVTGFSIIGGEHRLTNGKSVTTVHRFEKENRIWTVVLESYVVDMPEGNSEDDTRMFADTVVKLNLQKLATVAEAMARNSGDGSGSQVT
notes: pBD-PYR1 fusion in yeast
On to B20, for which, in experiment [3], the Threshold was found to be 100 µM.

B21: PYR1^K59R,Y120A,N167C (receptor, not shown: small tags and cut ends)
chain: MPSELTPEERSELKNSIAEFHTYQLDPGSCSSLHAQRIHAPPELVWSIVRRFDKPQTYRHFIKSCSVEQNFEMRVGCTRDVIVISGLPANTSTERLDILDDERRVTGFSIIGGEHRLTNAKSVTTVHRFEKENRIWTVVLESYVVDMPEGNSEDDTRMFADTVVKLCLQKLATVAEAMARNSGDGSGSQVT
notes: pBD-PYR1 fusion in yeast
B21 yielded a Threshold in experiment [3] of 10 µM.

Values taken from patent US20160115500A1 (University of California, published 2016).
